The target in experiment [1] is T1, human Bcl-w a.a. 1-182 with C-terminal avi-6his tag (human, UniProt Q92843 1-182).
T1 construct: range 1-182; also called BCL2L2
T1 sequence: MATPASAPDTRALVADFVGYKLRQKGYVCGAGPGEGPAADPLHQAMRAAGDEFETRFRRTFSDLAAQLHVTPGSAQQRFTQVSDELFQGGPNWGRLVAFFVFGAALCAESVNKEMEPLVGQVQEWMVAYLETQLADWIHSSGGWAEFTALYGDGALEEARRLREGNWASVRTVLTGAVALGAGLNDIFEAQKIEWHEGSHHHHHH
Briefly: yeast surface display titration; apparent binding constant (mean ± SE, n = 3-6).

Experiment [2] has as its target T2, human Bcl-XL a.a. 1-205 with C-terminal avi-6his tag (human, UniProt Q07817 2-206).
T2 construct: also called BCL2L1
The description is as above.

Experiment [3] concerns the target T3, human Mcl-1 a.a. 172-327 with C-terminal avi-6his tag (human).
T3 chain: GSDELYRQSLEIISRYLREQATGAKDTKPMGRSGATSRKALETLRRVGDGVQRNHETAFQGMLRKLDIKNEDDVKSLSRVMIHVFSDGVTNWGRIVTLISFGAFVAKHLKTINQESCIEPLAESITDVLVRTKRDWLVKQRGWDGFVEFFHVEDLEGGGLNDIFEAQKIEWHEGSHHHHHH
Described as above.

The target of experiment [4] is T4, human Bfl-1 a.a. 1-153 (C4S) with C-terminal avi-6his tag (human).
T4 construct: also called A1/Bfl-1
T4 chain: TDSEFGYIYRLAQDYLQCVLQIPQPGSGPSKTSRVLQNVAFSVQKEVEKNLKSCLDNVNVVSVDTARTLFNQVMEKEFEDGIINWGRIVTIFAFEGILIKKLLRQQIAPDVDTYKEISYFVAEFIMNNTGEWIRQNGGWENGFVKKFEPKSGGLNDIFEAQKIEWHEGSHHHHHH
The experiment is described as above.

Experiment [5] concerns the target T5, human Bcl-2 a.a. 1-207 with C-terminal avi-6his tag (human, UniProt P10415 2-207). The description is as above.
Experiment [6] concerns the target T6, Epstein-Barr virus BHRF1 a.a. 1-161 with C-terminal avi-6his tag (Epstein-Barr virus).
T6 construct: also called EBV BHRF1; BHRF1-biotin
T6 chain: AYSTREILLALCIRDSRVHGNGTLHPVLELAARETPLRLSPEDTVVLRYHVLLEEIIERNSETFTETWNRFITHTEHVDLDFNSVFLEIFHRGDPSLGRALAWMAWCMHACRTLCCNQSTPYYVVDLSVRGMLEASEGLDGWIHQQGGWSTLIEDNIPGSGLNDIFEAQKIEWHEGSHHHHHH
Briefly: effect of the mutation on specificity (KD(BHRF1)/KD(Mcl-1) ratio): change in binding energy for BHRF1 minus that for Mcl-1, relative to BbpD04; assay not named on the sheet.

In experiment [7] the target is T2, human Bcl-XL a.a. 1-205 with C-terminal …. Nature of the experiment: ratio of the KD of the next tightest BCL2 protein to the KD of the target, BLI.
Experiment [8] addresses T1, human Bcl-w a.a. 1-182 with C-terminal …. Nature of the experiment: BLI, biotinylated target on streptavidin sensor, range of analyte concentrations. For orientation: Biolayer interferometry detects binding as a change in optical thickness at a sensor tip.
Experiment [9] concerns the target T2, human Bcl-XL a.a. 1-205 with C-terminal …. The description is as above.
For experiment [10], the target named is T5, human Bcl-2 a.a. 1-207 with C-terminal …. The description is as above.
Target sequence in this assay (P10415 other isoform, or with tags, fused parts or gaps limits assumed): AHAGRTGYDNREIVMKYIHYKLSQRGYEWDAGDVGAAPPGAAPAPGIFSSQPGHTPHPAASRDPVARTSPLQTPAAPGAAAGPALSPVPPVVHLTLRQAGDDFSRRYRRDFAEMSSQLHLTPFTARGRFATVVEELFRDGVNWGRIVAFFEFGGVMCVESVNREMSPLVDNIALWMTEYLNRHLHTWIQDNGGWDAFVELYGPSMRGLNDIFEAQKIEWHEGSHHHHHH
The target of experiment [11] is T3, human Mcl-1 a.a. 172-327 with …. Described as above.
Experiment [12] has as its target T7, human Bcl-B a.a. 11-175 with C-terminal avi-6his tag (human).
T7 construct: also called BCL2L10
T7 chain: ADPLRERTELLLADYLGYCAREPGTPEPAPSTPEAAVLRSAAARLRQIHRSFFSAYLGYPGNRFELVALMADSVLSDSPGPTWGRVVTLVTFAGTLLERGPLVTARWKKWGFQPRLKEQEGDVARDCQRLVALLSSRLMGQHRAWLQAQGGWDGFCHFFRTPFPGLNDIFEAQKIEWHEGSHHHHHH
The description is as above.

Experiment [13] concerns the target T1, human Bcl-w a.a. 1-182 with C-terminal …. Briefly: ratio of the KD of the next tightest BCL2 protein to the KD of the target, BLI.
The target of experiment [14] is T4, human Bfl-1 a.a. 1-153 (C4S) with …. Briefly: BLI, biotinylated target on streptavidin sensor, range of analyte concentrations.

Residue numbers refer to the chain shown, from its start. Names may count otherwise.

B1: BbpD04.2 C103V (designed binder)
designed protein: ADWKKVLDKAKDIAENRVRELKQKLEEFYKEAMKLDLTQEMRRKLMLRWIAAMLMAIGDIFNAIRQAKQEADKLKKAGLVNSQQLDELKRRLEELKEEASRKVRDYGREFQLKLEY
Turning to B1, the Kd in experiment [1] was 9.6 nM; in [2], 20 nM; in [3], 2.3 nM; in [4], 19 nM; in [5], 12.6 nM.

B2: E48R (designed binder)
designed protein: B1 designed protein with L21I, E31K, R65E, L79Q, Q84L, V103C, R104H
Regarding B2, the “[..] ΔΔG BHRF1 - ΔΔG Mcl-1” value in experiment [6] was -0.762 kcal/mol.

B3: XINDI (designed binder)
chain: ADPKKVLDKAKDRAENVVRKLKKELEELYKEARKLDLTQEMRDRIRRTAIAARFQAHGDIFHAIKHAKEEARKLKKAGLVNSQQLDELKRRLRELDEEAEQRAEKLGKEFRLKLEY
notes: also called X-ECM04; αBCLXL
For B3, the Specificity in [7] came out at 660 fold. Further, the Kd was found to be 40000 nM in experiment [8], 5.59 nM in experiment [9] and 3700 nM in experiment [10].

B4: X-CDP07 (designed binder)
chain: ADPKKVLDKAKDRAENVVRKLKKELEELYKEARKLDLTQEMRDRIRLAAIAARIAAFGDIFHAIMEALEEARKLKKAGLVNSQQLDELKRRLEELDEEAAQRAEKLGKEFELKLEY
With B4, the Specificity in [7] was found to be 6.46 fold. Also, the Kd in [8] came to 14.9 nM; in experiment [11] it was 174 nM; in experiment [12] it was 107 nM; in [10] it was 3.81 nM. Besides, in experiment [9], the “apparent Kd (pooled screen)” value was 0.59 nM.

B5: W-CDP03 (designed binder)
chain: DPKKVFDEAKDRAENNVRRLKQKLEELYKEARKKDLTQEEREKLKEKYKTAMAAAALAAIGDAFNALLKARKLHKNGQVNEQQLEELARRLQELAKEAFQKAKDYANEFEYKLEY
For B5, the Specificity in experiment [13] came out at 0.9 fold. Further, in [8], the “apparent Kd (pooled screen)” value is 8 nM. Also, the Kd stood at 7.43 nM in [9]; 55.3 nM in [11]; 400 nM in [14]; 400 nM in experiment [12]; 18.8 nM in [10].

B6: WINDI (designed binder)
chain: B5 chain with A9L, E46T, A53Q, A54L, I60E, A63I, F64M, Q92M, E110K
notes: also called W-ECM01; αBCLW
B6: the Specificity in experiment [13] turned out to be 1590 fold. The Kd is 1.01 nM in experiment [8], 1610 nM in experiment [9] and 5700 nM in experiment [10].

Values taken from US20160376333A1 (University of Washington, published 2016).
